From US20250320284A1 (AC IMMUNE, published 2025) come the findings set out here.

Assay [1] deals with T1, human ASC (apoptosis associated speck-like protein containing a caspase-recruitment domain) (human, UniProt Q9ULZ3 1-195).
T1 construct: recombinant hASC in ELISA and SPR; endogenous ASC (cytoplasmic or specks) in Western blot and immunofluorescence; also called hASC; PYCARD
Briefly: SPR, hASC immobilized, Fab in flow. (SPR reads the build-up and loss of mass on a sensor chip optically.)

Assay [2] concerns the target T1, human ASC (apoptosis associated …). The experiment in a line: ELISA, coated hASC.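 Also: antibody binding to plate-coated recombinant human ASC, read as phosphatase substrate absorbance, EC50 from four-parameter variable-slope fit.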 A general note: ELISA stands for enzyme-linked immunosorbent assay.
The next assay concerns the target T2, mouse ASC (mouse, UniProt Q9EPB4 1-193).
T2 construct: recombinant mASC in ELISA and SPR; endogenous ASC of J774.A1 cells in Western blot and immunofluorescence; also called mASC
T2 sequence: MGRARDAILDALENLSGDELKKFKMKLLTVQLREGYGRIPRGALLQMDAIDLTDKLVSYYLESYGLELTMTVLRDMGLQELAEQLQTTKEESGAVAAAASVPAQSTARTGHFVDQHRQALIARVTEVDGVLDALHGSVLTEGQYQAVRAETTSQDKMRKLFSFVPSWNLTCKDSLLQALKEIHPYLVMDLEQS
The experiment in a line: ELISA, coated mASC.

In a further assay the target is T3, CARD domain of human ASC (human, UniProt Q9ULZ3 107-195).
T3 construct: biotinylated in BLI; also called hCARD; human CARD
T3 sequence: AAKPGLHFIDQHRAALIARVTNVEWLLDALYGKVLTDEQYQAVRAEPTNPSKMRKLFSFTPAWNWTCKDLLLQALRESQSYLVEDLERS
The experiment in a line: ELISA, coated hCARD.
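For Kd in this document: hASC amine-coupled on a CM5 chip (about 500 RU), Fab analytes measured by single-cycle kinetics in PBS-P+ running buffer, glycine pH 1.7 regeneration between Fabs.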
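For koff in this document: hASC amine-coupled on a CM5 chip (about 500 RU), Fab analytes measured by single-cycle kinetics in PBS-P+ running buffer, glycine pH 1.7 regeneration between Fabs.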
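For kon in this document: hASC amine-coupled on a CM5 chip (about 500 RU), Fab analytes measured by single-cycle kinetics in PBS-P+ running buffer, glycine pH 1.7 regeneration between Fabs.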

T1 sequence (Q9ULZ3 whole entry, the tested form may be a part): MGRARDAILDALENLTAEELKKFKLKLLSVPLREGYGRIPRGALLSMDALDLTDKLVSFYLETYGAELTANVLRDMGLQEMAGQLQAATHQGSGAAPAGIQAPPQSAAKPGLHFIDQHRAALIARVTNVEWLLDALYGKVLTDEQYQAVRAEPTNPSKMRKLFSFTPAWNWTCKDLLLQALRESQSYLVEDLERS

B1: hACI-8016-32B6C7-AB1_H9L3 Fab (Fab, V domains shown)
VH: EVQLVQSGAEVKKPGESLKISCKISGYSFTDQTIHWVHQMPGKGLEWMGYIYPGDGSAMYNEKFQGQVTISADKSISTAYLQWSSLKASDTAMYYCARPLYSYASYYWFAYWGQGTLVTVSS
VL: EIVLTQSPATLSLSPGERATLSCHASQNINVWLSWYQQKPGQAPRLLIYKSSNLHTGIPARFSGSGSGTDFTLTISSLEPEDFAVYYCQQGQSYPLTFGQGTKLEIK
With B1, in assay [1], the Kd was 0.091 nM, the koff came to 8.87e-06 s⁻¹ and the kon turned out to be 99100 M⁻¹ s⁻¹.

B2: hACI-8016-32B6C7-AB1_H5L4 Fab (Fab, V domains shown)
VH: QVQLVQSGAEVKKPGSSVKVSCKISGYTFTDQTIHWVRQAPGQGLEWMGYIYPGDGSAMYNEKFQGRVTITADKSTSTAYMELSSLRSEDTAVYYCARPLYSYASYYWFAYWGQGTLVTVSS
VL: EIVLTQSPATLSLSPGERATLSCHASQNINVYLSWYQQKPGQAPRLLIYKSSNLHTGIPARFSGSGSGTDFTLTISSLEPEDFAVYYCQQGQSYPLTFGQGTKLEIK
For the molecule B2, in assay [1], the Kd turned out to be 0.079 nM, the off-rate constant (koff) came to 6.68e-06 s⁻¹ and the on-rate (kon) was found to be 84500 M⁻¹ s⁻¹.

B3: hACI-8016-32B6C7-AB1_H9L4 Fab (Fab, V domains shown)
VH: EVQLVQSGAEVKKPGESLKISCKISGYSFTDQTIHWVHQMPGKGLEWMGYIYPGDGSAMYNEKFQGQVTISADKSISTAYLQWSSLKASDTAMYYCARPLYSYASYYWFAYWGQGTLVTVSS
VL: EIVLTQSPATLSLSPGERATLSCHASQNINVYLSWYQQKPGQAPRLLIYKSSNLHTGIPARFSGSGSGTDFTLTISSLEPEDFAVYYCQQGQSYPLTFGQGTKLEIK
For the molecule B3, in assay [1], the Kd stood at 0.081 nM, the koff stood at 7.52e-06 s⁻¹ and the on-rate constant (kon) was found to be 92000 M⁻¹ s⁻¹.

B4: hACI-8016-32B6C7-AB1_H4L3 Fab (Fab, V domains shown)
VH: QVQLVQSGAEVKKPGSSVKVSCKISGYSFTDQTIHWVRQAPGQGLEWMGYIYPGDGSAMYNEKFQGRVTITADKSTSTAYMELSSLRSEDTAVYYCARPLYSYASYYWFAYWGQGTLVTVSS
VL: EIVLTQSPATLSLSPGERATLSCHASQNINVWLSWYQQKPGQAPRLLIYKSSNLHTGIPARFSGSGSGTDFTLTISSLEPEDFAVYYCQQGQSYPLTFGQGTKLEIK
Regarding B4, in assay [1], the affinity, expressed as Kd, was 0.077 nM; the koff was found to be 8.16e-06 s⁻¹; the kon came out at 108000 M⁻¹ s⁻¹.

B5: hACI-8016-32B6C7-AB1_H2L3 Fab (Fab, V domains shown)
VH: EVQLVQSGAEVKKPGESLKISCKISGYTFTDQTIHWVHQMPGKGLEWMGYIYPGDGSAMYNEKFQGQVTISADKSISTAYLQWSSLKASDTAMYYCARPLYSYASYYWFAYWGQGTLVTVSS
VL: EIVLTQSPATLSLSPGERATLSCHASQNINVWLSWYQQKPGQAPRLLIYKSSNLHTGIPARFSGSGSGTDFTLTISSLEPEDFAVYYCQQGQSYPLTFGQGTKLEIK
In assay [1], B5 showed a Kd of 0.105 nM, a koff of 8.64e-06 s⁻¹ and a kon of 82200 M⁻¹ s⁻¹.

B6: hACI-8016-32B6C7-AB1_H6L4 Fab (Fab, V domains shown)
VH: QVQLVQSGAEVKKPGSSVKVSCKASGYTFTDQTIHWVRQAPGQGLEWMGYIYPGDGSAMYNEKFQGRVTITADKSTSTAYMELSSLRSEDTAVYYCARPLYSYASYYWFAYWGQGTLVTVSS
VL: EIVLTQSPATLSLSPGERATLSCHASQNINVYLSWYQQKPGQAPRLLIYKSSNLHTGIPARFSGSGSGTDFTLTISSLEPEDFAVYYCQQGQSYPLTFGQGTKLEIK
In assay [1], B6 came in with a Kd of 0.067 nM, an off-rate constant (koff) of 5.28e-06 s⁻¹ and a kon of 79200 M⁻¹ s⁻¹.

B7: hACI-8016-32B6C7-AB1_H6L3 Fab (Fab, V domains shown)
VH: QVQLVQSGAEVKKPGSSVKVSCKASGYTFTDQTIHWVRQAPGQGLEWMGYIYPGDGSAMYNEKFQGRVTITADKSTSTAYMELSSLRSEDTAVYYCARPLYSYASYYWFAYWGQGTLVTVSS
VL: EIVLTQSPATLSLSPGERATLSCHASQNINVWLSWYQQKPGQAPRLLIYKSSNLHTGIPARFSGSGSGTDFTLTISSLEPEDFAVYYCQQGQSYPLTFGQGTKLEIK
In assay [1], B7 showed a Kd of 0.086 nM, a koff of 7.52e-06 s⁻¹ and a kon of 87200 M⁻¹ s⁻¹.

B8: hACI-8016-32B6C7-AB1_H14L3 Fab (Fab, V domains shown)
VH: QVQLVQSGAEVKKPGSSVKVSCKASGYTFTDQTIHWVRQAPGQGLEWMGYIYPGDSSAMYNEKFQGRVTITADKSTSTAYMELSSLRSEDTAVYYCARPLYSYASYYWFAYWGQGTLVTVSS
VL: EIVLTQSPATLSLSPGERATLSCHASQNINVWLSWYQQKPGQAPRLLIYKSSNLHTGIPARFSGSGSGTDFTLTISSLEPEDFAVYYCQQGQSYPLTFGQGTKLEIK
As to B8, in assay [1], binding was put at a Kd of 0.049 nM, the koff came out at 4.96e-06 s⁻¹ and the kon came out at 101000 M⁻¹ s⁻¹.

B9: hACI-8016-32B6C7-AB1_H15L3 Fab (Fab, V domains shown)
VH: QVQLVQSGAEVKKPGSSVKVSCKASGYTFTDQTIHWVRQAPGQGLEWMGYIYPGDASAMYNEKFQGRVTITADKSTSTAYMELSSLRSEDTAVYYCARPLYSYASYYWFAYWGQGTLVTVSS
VL: EIVLTQSPATLSLSPGERATLSCHASQNINVWLSWYQQKPGQAPRLLIYKSSNLHTGIPARFSGSGSGTDFTLTISSLEPEDFAVYYCQQGQSYPLTFGQGTKLEIK
In assay [1], B9 gave a Kd of 0.052 nM, an off-rate (koff) of 4.82e-06 s⁻¹ and a kon of 103000 M⁻¹ s⁻¹.

B10: hACI-8016-32B6C7-AB1_H13L3 Fab (Fab, V domains shown)
VH: EVQLVQSGAEVKKPGESLKISCKISGYSFTDQTIHWVHQMPGKGLEWMGYIYPGDSSAMYNEKFQGQVTISADKSISTAYLQWSSLKASDTAMYYCARPLYSYASYYWFAYWGQGTLVTVSS
VL: EIVLTQSPATLSLSPGERATLSCHASQNINVWLSWYQQKPGQAPRLLIYKSSNLHTGIPARFSGSGSGTDFTLTISSLEPEDFAVYYCQQGQSYPLTFGQGTKLEIK
In assay [1], B10 showed a Kd of 0.077 nM, a koff of 8.01e-06 s⁻¹ and a kon of 105000 M⁻¹ s⁻¹.

B11: hACI-8016-32B6C7-AB1_H8L4 Fab (Fab, V domains shown)
VH: QVQLVQSGAEVKKPGSSVKVSCKISGYTFTDQTIHWVRQAPGQGLEWMGYIYPGDASAMYNEKFQGRVTITADKSTSTAYMELSSLRSEDTAVYYCARPLYSYASYYWFAYWGQGTLVTVSS
VL: EIVLTQSPATLSLSPGERATLSCHASQNINVYLSWYQQKPGQAPRLLIYKSSNLHTGIPARFSGSGSGTDFTLTISSLEPEDFAVYYCQQGQSYPLTFGQGTKLEIK
Regarding B11, in assay [1], the Kd worked out at 0.077 nM, the koff came out at 7.03e-06 s⁻¹ and the kon is 94000 M⁻¹ s⁻¹.

B12: hACI-8016-32B6C7-AB1_H7L4 Fab (Fab, V domains shown)
VH: QVQLVQSGAEVKKPGSSVKVSCKISGYTFTDQTIHWVRQAPGQGLEWMGYIYPGDSSAMYNEKFQGRVTITADKSTSTAYMELSSLRSEDTAVYYCARPLYSYASYYWFAYWGQGTLVTVSS
VL: EIVLTQSPATLSLSPGERATLSCHASQNINVYLSWYQQKPGQAPRLLIYKSSNLHTGIPARFSGSGSGTDFTLTISSLEPEDFAVYYCQQGQSYPLTFGQGTKLEIK
In assay [1], B12 had a Kd of 0.067 nM, an off-rate (koff) of 5.62e-06 s⁻¹ and a kon of 84300 M⁻¹ s⁻¹.

B13: hACI-8016-32B6C7-AB1_H13L4 Fab (Fab, V domains shown)
VH: EVQLVQSGAEVKKPGESLKISCKISGYSFTDQTIHWVHQMPGKGLEWMGYIYPGDSSAMYNEKFQGQVTISADKSISTAYLQWSSLKASDTAMYYCARPLYSYASYYWFAYWGQGTLVTVSS
VL: EIVLTQSPATLSLSPGERATLSCHASQNINVYLSWYQQKPGQAPRLLIYKSSNLHTGIPARFSGSGSGTDFTLTISSLEPEDFAVYYCQQGQSYPLTFGQGTKLEIK
Regarding B13, in assay [1], binding was characterised by a dissociation constant (Kd) of 0.084 nM, the koff was 7.09e-06 s⁻¹ and the kon was determined as 84100 M⁻¹ s⁻¹.

B14: ACI-8016-2614C3B2-AB1 (antibody, V domains shown)
VH: QVQLQQSDAELVKPGASVKISCKVSGYALTDHSIHWMKQRPEQGLAWIGYMYPGDGSANYNDKFKGKATLTADISSSTAYMQLNSLTSEDSAVYFCTRPYYFGSSYDYFGYWGQGTTLTVSS
VL: DIQMNQSPSSLSASLGDTITITCHASQNINVWLSWYQQKPGNVPKLLIYKASKLHTGVSSNFSGSGSGTGFTLTISSLQPEDIGTYYCQQGQSYPYTFGGGTKLEIK
In the case of B14, the EC50 in assay [2] came to 1.98 nM; with mouse ASC it was 2.67 nM; with CARD domain of human ASC, 2.21 nM.

B15: ACI-8016-32B6C7-AB1 chimeric Fab (Fab, V domains shown)
VH: QVQLQQSDAELVKPGASVKISCKISGYTFTDQTIHWMNQRPEQGLEWIGYIYPGDGSAMYNEKFRGKATLTADKSSSTAYMQLNSLTSEDSAVYFCARPLYSYASYYWFAYWGQGTLVTVSA
VL: DIQMNQSPSSLSASLGDTITITCHASQNINVWLSWYQRKPGNIPKLLIYKSSNLHTGVPSRFSGSGSGTGFTLTISSLQPEDIATYYCQQGQSYPLTFGGGTKLEIK
notes: Fab
In assay [1], B15 came in with a Kd of 1.01 nM, an off-rate (koff) of 2.11e-05 s⁻¹ and an association rate constant (kon) of 20900 M⁻¹ s⁻¹.

B16: ACI-8018-2221B7F1-AB1 (antibody, V domains shown)
VH: EVQLVESGGGLVKPGGSLKLSCAASGFTFSDSYMYWLRQTPEKRLEWVASISDGGRYTYYSDSVKGRFTISRDNVKNNLYLQMTSLRSEDTAIYYCARGLDYWGQGTTLTVSS
VL: DIKMTQSPSSMYASLGERVTITCKASQDINSYLSWFQQKPGKSPKTLIYRANRLVDGVPSRFSGSGSGQDYSLTISSLEYEDMGIYYCLQYAESTWTFGGGTKLEIK
Take B16: it took 0.14 nM to reach a half-maximal effect in assay [2] (EC50). Besides, the binding result with mouse ASC was “no binding”.

B17: ACI-8016-1112B3D7-AB1 (antibody, V domains shown)
VH: QVQLQQSGAELVRPGTSVKLSCKASGYTFTSYWMHWVKQRPGQGLEWIGGIDPSDSYTKYNQKFKAKATLTADTSSSTAYMQLSSLTSEDSAIFYCAREEASTVVAHWYFDVWGTGTTVTVSS
VL: DIVLTQSPATLSVTPGDSVSLSCRASQSISNNLHWYQQKSHESPRLLIKYTSQSISGIPSRFSGSGSGTDYTLSINSVETEDFGMYFCQQSNNWPYTFGGGTKLEIK
Consider B17, for which, in assay [2], the concentration giving a half-maximal response (EC50) stood at 0.07 nM. In the assay with mouse ASC, the binding result is “no binding”.

Usually Kd stands for the free concentration of one partner at which half of the binding sites on the other are occupied at equilibrium, for simple one-to-one binding. The koff is a measure of how fast the partners let go of each other. A lower koff goes with slow dissociation. As usually defined, the kon is the second-order rate constant of association. Low readings indicate slower complex formation, high ones faster complex formation. One may read the EC50 as the concentration at which the effect is half-maximal. A high value points to a need for much substance.
